Experimental data reported in PMC6488372 (Molecular microbiology, 2019).

Target: E. coli His-α ΔCTD (His-α Δ235, α 1–234) (E. coli, UniProt P0A7Z4 1-234)
Test: BLI

B1: LuxR (native, wild-type), purified (natural protein)
chain: MDSIAKRPRTRLSPLKRKQQLMEIALEVFARRGIGRGGHADIAEIAQVSVATVFNYFPTREDLVDEVLNHVVRQFSNFLSDNIDLDIHARENIANITNAMIELVSQDCHWLKVWFEWSASTRDEVWPLFVTTNRTNQLLVQNMFIKAIERGEVCDQHEPEHLANLFHGICYSIFVQANRSKSEAELTNLVSAYLDMLCIYNREHH
Kd: 0.256 µM
